From patent US20040214902A1 come the findings set out here.

No end group written: not given here. *: point of attachment. 6FAM = O=C1OC2(c3ccc(O)cc3Oc3cc(O)ccc32)c2cc(C(=O)*)ccc21

For the assay, the target named is 46-kDa soluble recombinant GST-fused Bcl-2 protein (Santa Cruz Biotechnology) (human) (UniProt P10415). Put plainly: fluorescence polarization saturation binding. (Fluorescence polarisation rises when a labelled molecule tumbles more slowly, as on binding a larger partner.)

Turning to 6FAM-NLWAAQRYGRELRRMSDEFVDSFKK, the Kd (as a rule, the constant that tells how readily two partners part at equilibrium) was found to be 6.9 nM.
